± gives the standard error. Variants at the floor of the assay were thinned out.
B1: glmS ribozyme (parent)
chain: AUAAAAGCGCCAGAACUACAGAAAUGUAGUUGACGAGGAGGAGGUUUAUCGAAUUUUCGGCGGAUGCCUCCAAA

Columns and labels:
Conditions in all cases: with glucosamine-6-phosphate
glucosamine-6-phosphate [1] = variants of: B1; assay: self-cleavage kobs at 160 uM GlcN6P; higher = faster cleavage; RNA array
Method in brief: (§1)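 Glucosamine-6-phosphate, from 40 μM to 10 mM in HEPES/KCl/Mg(OAc)2 buffer, was flowed over sequenced MiSeq chips carrying barcoded ribozyme variants transcribed in situ by E. coli RNA polymerase. A hybridised Cy3 probe tracked the variants at 37 °C as tiles were imaged over ~14 h. kobs, kcat and KM were obtained by fitting normalised per-tile medians to exponential decays and then applying weighted Michaelis–Menten fits across concentrations.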

glucosamine-6-phosphate [2] = variants of: B1; assay: self-cleavage kobs at 640 uM GlcN6P; higher = faster cleavage; RNA array
Method in brief: as §1

glucosamine-6-phosphate [3] = variants of: B1; assay: self-cleavage kobs at 2500 uM GlcN6P; higher = faster cleavage; RNA array
Method in brief: as §1

glucosamine-6-phosphate [4] = variants of: B1; assay: self-cleavage kobs at 10000 uM GlcN6P; higher = faster cleavage; RNA array
Method in brief: as §1

| Variant | self-cleavage kobs at 160 uM GlcN6P (glucosamine-6-phosphate [1]) [s⁻¹] | self-cleavage kobs at 640 uM GlcN6P (glucosamine-6-phosphate [2]) [s⁻¹] | self-cleavage kobs at 2500 uM GlcN6P (glucosamine-6-phosphate [3]) [s⁻¹] | self-cleavage kobs at 10000 uM GlcN6P (glucosamine-6-phosphate [4]) [s⁻¹] |
| --- | --- | --- | --- | --- |
| AUAAAAGGUCCUGAAGUACAGAAAUGUAGUUGACGAGGAGGAGGUUUAUCGAAUUUUCGGCGGAUGCCUCCAAA [C8G G9U A12U C16G] | < 1e-05 | < 1e-05 |  |  |
| AUAAAAGCGCCAGAACUACAGAAAUGUAGUUCACGAGGAGGAGGUUUAUCGAAUUUUCGUCGGAUGCCUCCAAA [G32C G60U] | < 1e-05 | < 1e-05 | < 1e-05 | < 1e-05 |
| AUAAAUGCGCCAGAACUACAGAAAUGUAGUUGACGAGGAGGAGGAUUGUCGAAUUUUCGGCGGAUGCCUCCAAA [A6U U45A A48G] | < 1e-05 | < 1e-05 |  |  |
| AUAAAAGCGCCACAAGUACAGAAAUGUAGUUGACGAGAAGGAGGUUUAUCGAAUUUUCGGCGGAUGCCUCCAAA [G13C C16G G38A] | < 1e-05 |  |  |  |
| AUAAAAGUGCCAGAACUACAGAAAUGUAGUUGACGAGGAGGAGGUUUAUCGAAUUUUCGGCGGAUGCCUCGAAA [C8U C71G] | < 1e-05 | < 1e-05 | < 1e-05 |  |
| AUAAAAGUGCCAGAACUACAGAAAUGUAGUUGACAAGGAGGAGGUUUACCGAAUUUUCGGCGGCUGCCUCAAAA [C8U G35A U49C A64C C71A] | < 1e-05 |  |  |  |
| AUAAAAGCGCCAUAACUACAGAAAUGUAGUUGACGAGGAGGAGGUUUAUGGAAUUUUCAGCGGAUGCCUCCAAA [G13U C50G G59A] | 0.0002 ± 7.6e-05 |  |  |  |
| AUAAAAGCGCCAGAACUACAGAAAUGUAGUUGACGACGAGGAGAUUUAACGAAUUUUCGGCGGAUGCUUCCAAA [G37C G44A U49A C68U] | < 1e-05 |  | < 1e-05 |  |
| AUAAAAGCGCCAGAACUACAGAAAUGUAGUUGACAAGGCGGAGGUUUAUCGAAUUUUCGGCGGAUGCCUCCAAA [G35A A39C] | < 1e-05 | < 1e-05 | < 1e-05 | < 1e-05 |
| AUAAAAGCGCCAGAACUACAGAAAUGUAGUUGACGAGGAGGAGGGUUAUCGAAUUUUGAGCGGAUGCCUCCAAA [U45G C58G G59A] | < 1e-05 |  | < 1e-05 |  |
| AUAAACGCGACAGAACUACAGAAAUGUAGUUGACAAGGAGGAGGUUUAUCGAAUUUUGGGCGGAUGCCUGCAAA [A6C C10A G35A C58G C70G] | 4.89e-05 ± 2.3e-05 | 0.000553 ± 0.00014 | 0.000134 ± 4.9e-05 |  |
| AUAAAAGCGCCAGAACUACAGAAAUGUAGUUGACGAGGAGGAUGUUUAUCGAAUUUUCUACGGAUGCCUCCAAA [G43U G59U G60A] | < 1e-05 |  | < 1e-05 |  |
| AUAAAAGCGACAGAAGUACAGAAAUGUAGUUGACGAGGAGGAGGUUUAUCGAAUUUUCGGCGGAUGCCUCCAAA [C10A C16G] | < 1e-05 |  |  | < 1e-05 |
| AUAAAAGCGCCAGAACUACAGAAAUGUAGGCGUCGAGGAGGAGGAUUAUCGAAUAUUCGGCGGAUGCCUCCAAA [U30G U31C A33U U45A U55A] | < 1e-05 |  |  |  |
| AUAAAACCGGCAGAACUACAGAAAUGUAGUUGACGAGGAGGAGGCUUAUCGAAUUUUCGGCGGAUGCCUCCAAA [G7C C10G U45C] | < 1e-05 |  |  |  |
| AUAAAAGCGCCAGAACUACAGAAAUGUAGGUUACGUGGAGGAGGUUUAUCGAAUUUUCGACGGAUGCCCCAAAA [U30G G32U A36U G60A U69C C71A] | < 1e-05 |  |  |  |
| AUAAACGCGCCAGAACUACAGAAAUGUAGUUGACGAGGAGGAGGUUUAAUGAAUUUUCGGCGGAUGCCUCCAAA [A6C U49A C50U] | < 1e-05 | < 1e-05 |  |  |
| AUAAAAGCGCCAGAACUACAGAAAUGUAGUCGACCAGGAGGAGGUUUAUCGAAUUUUCGGCGGAUGCCUCCAAA [U31C G35C] | < 1e-05 | < 1e-05 | < 1e-05 | < 1e-05 |

From the supplement of paper PMC7125110
